Test results from patent US9809833B2, “Pathways to adipate semialdehyde and other organic products” (BioAmber Inc., priority 2012, dated 2017).

B1: bktB: Beta-ketothiolase, E. coli optimized bktB sequence originally from Cupriavidus necator ATCC 17699, SEQ ID NOS 1 and 2 (protein)
chain: MTREVVVVSGVRTAIGTFGGSLKDVAPAELGALVVREALARAQVSGDDVGHVVFGNVIQTEPRDMYLGRVAAVNGGVTINAPALTVNRLCGSGLQAIVSAAQTILLGDTDVAIGGGAESMSRAPYLAPAARWGARMGDAGLVDMMLGALHDPFHRIHMGVTAENVAKEYDISRAQQDEAALESHRRASAAIKAGYFKDQIVPVVSKGRKGDVTFDTDEHVRHDATIDDMTKLRPVFVKENGTVTAGNASGLNDAAAAVVMMERAEAERRGLKPLARLVSYGHAGVDPKAMGIGPVPATKIALERAGLQVSDLDVIEANEAFAAQACAVTKALGLDPAKVNPNGSGISLGHPIGATGALITVKALHELNRVQGRYALVTMCIGGGQGIAAIFERI
modifications: Cupriavidus necator
B2: phaA: acyltransferase, E. coli optimized PhaA sequence originally from Ralstonia sp., EC 2.3.1.9, SEQ ID NOS 3 and 4 (protein)
chain: MTDVVIVSAARTAVGKFGGSLAKIPAPELGAVVIKAALERAGVKPEQVSEVIMGQVLTAGSGQNPARQAAIKAGLPAMVPAMTINKVCGSGLKAVMLAANAIMAGDAEIVVAGGQENMSAAPHVLPGSRDGFRMGDAKLVDTMIVDGLWDVYNQYHMGITAENVAKEYGITREAQDEFAVGSQNKAEAAQKAGKFDEEIVPVLIPQRKGDPVAFKTDEFVRQGATLDSMSGLKPAFDKAGTVTAANASGLNDGAAAVVVMSAAKAKELGLTPLATIKSYANAGVDPKVMGMGPVPASKRALSRAEWTPQDLDLMEINEAFAAQALAVHQQMGWDTSKVNVNGGAIAIGHPIGASGCRILVTLLHEMKRRDAKKGLASLCIGGGMGVALAVERK
modifications: Ralstonia sp., strain EMBL EON20543.1

Key:
[1] = In vitro DTNB thiolase activity assay on clarified cell lysates, butyryl-CoA substrate; type: biochemical; conditions: lysate of BL21 E. coli expressing the thiolase; 0.5 mM butyryl-CoA, 0.2 mM acetyl-coA, 0.5 mM DTNB, pH 7.4, 412 nm; no-substrate background subtracted; triplicate
Method: (§1) Plasmids containing the optimized thiolase genes were transformed into BL21 E. coli cells. Empty plasmid pTrcHisA was also transformed as a negative control. For expression and characterization experiments, shake flasks containing 40 mL TB were innoculated at 5% from overnight cultures. Flasks were incubated at 30° C. at 250 rpm shaking for 2 hours, then protein production was induced with 0.2 mM IPTG and incubated for 4 more hours at 30° C. while shaking. Cells were harvested by centrifugation and pellets were stored at −80° C.
(§2) Activity of thiolase candidates were assessed with an in vitro assay using DTNB (5,5′-Dithiobis(2-nitrobenzoic acid)) as an indicator. The enzyme activity was tested using two different substrates: crotonoyl-CoA and butyryl-CoA. The DTNB interacts with the free thiol created by the condensation of acetyl-CoA and the substrate present (butyryl-CoA or crotonoyl-CoA). Unless otherwise specified, all chemicals were purchased from Sigma-Aldrich Chemical Company, ST. Louis, Mo.
(§3) Cells were lysed using mechanical disruption using a BeadBeater (BioSpec products, Bartlesville, Okla.) using the manufacturer's instructions. The cell lysate was partially clarified by centrifugation (14,000 G for 5 minutes). Protein concentrations of the resulting clarified lysates were measured via BioRad Total Protein assay using the manufacturer's instructions. Lysates were normalized by protein concentration by dilution in 10 mM Tris buffer. The normalized lysates were diluted 1 to 5 in 10 mM Tris buffer. 20 ul of lysate was added to each well for the 96-well plate assay. Each condition was performed in triplicate.
(§4) The reaction mixture contains 10 mM Tris pH 7.4, 5 mM MgSO4, 0.2 mM acetyl-coA, 0.5 mM DTNB, 0.5 mM substrate (either butyryl-CoA or crotonoyl-CoA). […] The reactions in these microplates were monitored at 412 nm. Readings were taken every 9 seconds for 5 minutes and the data was used to calculate activities of each enzyme. The reactions using crotonoyl-CoA as substrate required a 60 sec incubation period before rates were able to be measured.

[2] = In vitro DTNB thiolase activity assay on clarified cell lysates, crotonoyl-CoA substrate; type: biochemical; conditions: lysate of BL21 E. coli expressing the thiolase; 0.5 mM crotonoyl-CoA, 0.2 mM acetyl-coA, 0.5 mM DTNB, pH 7.4, 412 nm; 60 sec incubation before measurement; no-substrate background subtracted; triplicate
Method: as §1, §2, §3, §4

Molecule | Average Activity with background subtracted, Butyryl coenzyme A [1] | Average Activity with background subtracted, Crotonoyl coenzyme A [2]
thl: acetyl-CoA acetyltransferase, E. coli optimized thl sequence originally from Clostridium acetobutylicum ATCC 824, SEQ ID NOS 5 and 6 | 0.039 µmol/min/mg | 0.0021 µmol/min/mg
B1 | 0.069 µmol/min/mg | 0.0043 µmol/min/mg
B2 | 0.053 µmol/min/mg | 0.0001 µmol/min/mg
